Experimental data: US20120114557A1 (published 2012)
Bridge positions count the residues as written; N and C are the ends. Primed or numbered codes have the meaning given here. Side chains are listed from the residue outwards. Ends that are not written are not given here. Gd^T″ = GdDTPA-thiourea; Gd^ = not defined here

Key:
[1] = molecular target: T1, human collagen type I (human, UniProt P02452 162-1218; P08123 80-1119); experiment: dried collagen assay, 5 uM peptide
T1 construct: biotinylated collagen I in the phage ELISA; also called dried human collagen; Collagen I
Description: An additional 90 μL is reserved in a HPLC glass vial as a measure of the total concentration.

[2] = molecular target: T2, human collagen (acid soluble, extracted from placenta; type I) (human, UniProt P02452 162-1218; P08123 80-1119); experiment: dried collagen assay, 5 uM each, 37 C, pH 7.4
T2 construct: mature; Tissue-extracted collagen; also called human collagen type I
Description: (§1) For the final assay, a 1:10 volume of 10×PBS (100 mM NaH₂PO₄, 1.5 M NaCl pH 7.4) is added to the collagen solution (final 1×PBS) and incubated at 37° C. for 2 hours.

[3] = molecular target: T3, rat collagen (acid soluble, type I, rat tail) (rat, UniProt P02454 152-1207; P02466 86-1125); experiment: dried collagen assay, 5 uM each, 37 C, pH 7.4
T3 construct: mature; Tissue-extracted collagen; also called rat collagen type I
Description: as §1

[4] = molecular target: T1, human collagen type I; experiment: dried collagen assay, 5 uM peptide; remark: listed apart in the source
Description: (§2) For the final assay, a 1:10 volume of 10×PBS (100 mM NaH₂PO₄, 1.5 M NaCl pH 7.4) is added to the collagen solution (final 1×PBS) and incubated at 37° C. for 2 hours. The gelation is typically 90%.

[5] = molecular target: T4, rat collagen type I (rat, UniProt P02454 152-1207; P02466 86-1125); experiment: dried collagen assay, 5 uM peptide
T4 construct: rat tail, Upstate 08-115; gelled and dried in wells; also called dried rat collagen; rat collagen (acid soluble, type I, rat tail)
T4 sequence (P02454 152-1207, chain 1 of 2): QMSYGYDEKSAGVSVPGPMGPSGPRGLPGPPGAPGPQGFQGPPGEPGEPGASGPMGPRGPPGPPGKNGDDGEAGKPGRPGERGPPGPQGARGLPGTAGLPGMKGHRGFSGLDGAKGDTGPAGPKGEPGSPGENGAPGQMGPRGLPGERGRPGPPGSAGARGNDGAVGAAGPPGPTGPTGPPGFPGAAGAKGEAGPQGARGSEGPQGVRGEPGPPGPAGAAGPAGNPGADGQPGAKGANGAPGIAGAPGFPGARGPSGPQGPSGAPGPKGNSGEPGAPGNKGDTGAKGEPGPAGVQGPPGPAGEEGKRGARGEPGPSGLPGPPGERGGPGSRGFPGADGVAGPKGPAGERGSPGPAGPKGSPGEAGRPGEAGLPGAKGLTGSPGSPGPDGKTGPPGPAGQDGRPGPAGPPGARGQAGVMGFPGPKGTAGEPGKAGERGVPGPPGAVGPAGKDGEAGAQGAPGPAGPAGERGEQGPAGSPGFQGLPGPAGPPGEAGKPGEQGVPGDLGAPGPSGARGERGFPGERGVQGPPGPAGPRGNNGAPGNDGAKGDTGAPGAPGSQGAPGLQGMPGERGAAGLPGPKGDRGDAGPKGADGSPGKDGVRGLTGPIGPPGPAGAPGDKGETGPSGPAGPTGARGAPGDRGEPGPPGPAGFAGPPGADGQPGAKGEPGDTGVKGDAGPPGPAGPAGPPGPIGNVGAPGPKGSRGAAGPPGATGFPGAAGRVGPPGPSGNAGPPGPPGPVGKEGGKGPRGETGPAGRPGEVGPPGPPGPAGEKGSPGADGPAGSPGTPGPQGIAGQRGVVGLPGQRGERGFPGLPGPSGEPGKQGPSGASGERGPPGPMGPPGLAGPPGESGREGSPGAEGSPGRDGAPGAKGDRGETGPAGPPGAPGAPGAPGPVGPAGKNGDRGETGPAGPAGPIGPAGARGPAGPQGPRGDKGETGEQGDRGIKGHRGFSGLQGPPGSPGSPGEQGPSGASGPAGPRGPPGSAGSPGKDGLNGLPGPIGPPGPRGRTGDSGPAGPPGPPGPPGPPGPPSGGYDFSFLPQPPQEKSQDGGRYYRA
T4 sequence (P02466 86-1125, chain 2 of 2): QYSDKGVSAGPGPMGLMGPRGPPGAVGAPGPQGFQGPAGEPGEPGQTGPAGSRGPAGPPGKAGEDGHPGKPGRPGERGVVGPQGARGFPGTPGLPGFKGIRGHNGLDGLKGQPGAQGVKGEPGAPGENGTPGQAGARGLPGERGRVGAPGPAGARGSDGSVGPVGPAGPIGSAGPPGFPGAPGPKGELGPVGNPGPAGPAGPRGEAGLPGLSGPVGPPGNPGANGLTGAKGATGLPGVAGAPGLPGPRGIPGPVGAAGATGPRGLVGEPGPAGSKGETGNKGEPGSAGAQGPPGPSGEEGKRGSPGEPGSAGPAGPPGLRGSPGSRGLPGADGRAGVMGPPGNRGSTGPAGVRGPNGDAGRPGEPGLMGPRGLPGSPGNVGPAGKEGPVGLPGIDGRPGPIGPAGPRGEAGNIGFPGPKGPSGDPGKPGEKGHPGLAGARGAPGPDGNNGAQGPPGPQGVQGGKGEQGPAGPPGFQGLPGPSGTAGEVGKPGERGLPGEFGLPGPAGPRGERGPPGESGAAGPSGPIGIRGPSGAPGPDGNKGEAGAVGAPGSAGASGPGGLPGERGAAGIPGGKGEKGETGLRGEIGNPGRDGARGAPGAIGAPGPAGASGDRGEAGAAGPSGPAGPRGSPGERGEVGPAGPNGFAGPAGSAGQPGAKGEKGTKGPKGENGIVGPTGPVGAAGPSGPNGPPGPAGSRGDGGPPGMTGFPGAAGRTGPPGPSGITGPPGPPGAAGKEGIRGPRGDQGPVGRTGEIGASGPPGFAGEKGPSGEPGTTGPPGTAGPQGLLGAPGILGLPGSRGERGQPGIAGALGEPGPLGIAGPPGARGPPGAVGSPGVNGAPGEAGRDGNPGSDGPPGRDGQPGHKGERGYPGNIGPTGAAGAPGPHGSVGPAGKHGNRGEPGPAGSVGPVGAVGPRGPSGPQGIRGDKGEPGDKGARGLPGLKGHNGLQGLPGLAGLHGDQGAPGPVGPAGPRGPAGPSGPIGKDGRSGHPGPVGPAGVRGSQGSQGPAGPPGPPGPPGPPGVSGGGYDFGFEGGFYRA
Description: as §2

T1 sequence (P02452 162-1218 limits assumed, chain 1 of 2): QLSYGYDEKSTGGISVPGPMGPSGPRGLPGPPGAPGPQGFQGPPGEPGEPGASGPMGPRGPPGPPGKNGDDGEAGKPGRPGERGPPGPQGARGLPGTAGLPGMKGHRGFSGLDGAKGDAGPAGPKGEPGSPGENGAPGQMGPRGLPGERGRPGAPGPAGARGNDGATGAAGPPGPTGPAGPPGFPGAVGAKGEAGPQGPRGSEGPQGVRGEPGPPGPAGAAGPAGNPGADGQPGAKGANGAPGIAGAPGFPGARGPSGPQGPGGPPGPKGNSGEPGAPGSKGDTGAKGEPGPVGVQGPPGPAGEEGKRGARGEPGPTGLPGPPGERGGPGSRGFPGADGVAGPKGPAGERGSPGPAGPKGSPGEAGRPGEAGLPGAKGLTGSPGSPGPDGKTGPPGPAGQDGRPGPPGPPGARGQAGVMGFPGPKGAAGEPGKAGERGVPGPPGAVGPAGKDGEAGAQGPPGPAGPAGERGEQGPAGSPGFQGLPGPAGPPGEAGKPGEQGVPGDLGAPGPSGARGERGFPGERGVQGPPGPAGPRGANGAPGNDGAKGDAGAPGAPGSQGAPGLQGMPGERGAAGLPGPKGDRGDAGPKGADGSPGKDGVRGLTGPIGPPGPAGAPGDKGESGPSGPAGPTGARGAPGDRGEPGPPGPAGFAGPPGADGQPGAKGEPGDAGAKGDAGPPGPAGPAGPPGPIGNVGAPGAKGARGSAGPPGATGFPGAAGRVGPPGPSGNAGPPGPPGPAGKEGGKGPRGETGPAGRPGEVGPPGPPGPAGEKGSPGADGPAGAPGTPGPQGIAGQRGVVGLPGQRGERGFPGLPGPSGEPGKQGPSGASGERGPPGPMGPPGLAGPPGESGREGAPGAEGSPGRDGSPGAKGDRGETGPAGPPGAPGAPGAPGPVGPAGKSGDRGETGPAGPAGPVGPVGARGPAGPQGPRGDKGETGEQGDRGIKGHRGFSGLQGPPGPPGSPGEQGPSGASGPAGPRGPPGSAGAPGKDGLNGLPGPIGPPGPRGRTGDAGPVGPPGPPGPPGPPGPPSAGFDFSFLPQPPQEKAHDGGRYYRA
T1 sequence (P08123 80-1119 limits assumed, chain 2 of 2): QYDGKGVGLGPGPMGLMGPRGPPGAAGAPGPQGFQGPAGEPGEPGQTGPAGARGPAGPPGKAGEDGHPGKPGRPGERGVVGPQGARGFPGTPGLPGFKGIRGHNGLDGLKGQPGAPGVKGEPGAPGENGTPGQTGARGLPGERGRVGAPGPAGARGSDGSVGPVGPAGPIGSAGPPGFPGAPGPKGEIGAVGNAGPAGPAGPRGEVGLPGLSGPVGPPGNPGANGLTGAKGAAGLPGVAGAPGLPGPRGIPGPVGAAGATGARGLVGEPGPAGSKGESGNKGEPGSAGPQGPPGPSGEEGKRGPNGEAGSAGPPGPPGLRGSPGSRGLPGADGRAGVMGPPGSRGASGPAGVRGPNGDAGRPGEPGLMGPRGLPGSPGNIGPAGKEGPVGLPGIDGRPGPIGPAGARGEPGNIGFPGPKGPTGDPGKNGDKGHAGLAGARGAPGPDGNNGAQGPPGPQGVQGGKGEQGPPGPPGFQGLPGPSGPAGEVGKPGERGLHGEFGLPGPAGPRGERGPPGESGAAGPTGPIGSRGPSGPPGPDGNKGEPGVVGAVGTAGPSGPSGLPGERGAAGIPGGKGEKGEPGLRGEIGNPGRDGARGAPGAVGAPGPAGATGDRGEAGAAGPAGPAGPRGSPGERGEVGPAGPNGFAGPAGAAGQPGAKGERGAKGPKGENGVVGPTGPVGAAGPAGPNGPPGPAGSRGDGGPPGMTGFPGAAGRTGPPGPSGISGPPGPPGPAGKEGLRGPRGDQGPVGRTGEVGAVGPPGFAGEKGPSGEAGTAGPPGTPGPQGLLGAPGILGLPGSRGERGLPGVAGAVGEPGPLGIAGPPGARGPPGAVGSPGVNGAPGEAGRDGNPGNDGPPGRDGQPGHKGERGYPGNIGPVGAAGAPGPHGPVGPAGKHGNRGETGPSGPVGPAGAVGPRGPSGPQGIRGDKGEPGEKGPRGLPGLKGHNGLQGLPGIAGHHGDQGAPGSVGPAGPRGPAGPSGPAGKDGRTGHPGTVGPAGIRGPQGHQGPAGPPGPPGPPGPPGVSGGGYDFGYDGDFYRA
T3 sequence (P02454 152-1207, chain 1 of 2): as the sequence (P02454 152-1207, chain 1 of 2) above
T3 sequence (P02466 86-1125, chain 2 of 2): as the sequence (P02466 86-1125, chain 2 of 2) above
T2 sequence (P02452 162-1218, chain 1 of 2): as the sequence (P02452 162-1218 limits assumed, chain 1 of 2) above
T2 sequence (P08123 80-1119, chain 2 of 2): as the sequence (P08123 80-1119 limits assumed, chain 2 of 2) above

Question: With RWSCVLDADGWVCSDN (disulfide 4-13 (inferred), also called TN-10 peptide) [SEQ ID NO: 66] as the binder, how does the “Dried Human Collagen Binding” value [1] read?
Answer: Its value is 6%.

Question: Which results are given for {Gd^T″}-GQWTCSGDEYTWHCNYE-{GTE} (disulfide 5-14 (inferred), also called Comp ID NO; 837) [Compound ID 837]?
Answer: Human binding [2]: 22%; Rat binding [3]: 10%

B1: Compound ID 864 (peptide)
peptide: {Gd^}-TGQWHCTTRFPHHYCLYG
modifications: not fully specified (some residues, bridges); printed as Gd^T.G.Q.W.H.C.T.T.R.F.P.H.H.y.C.L.Y.G; reading uncertain; also: series closure stated: disulfide
notes: also called Comp ID NO; 864
Question: B1 was tested. Which Human binding [2] did it give?
Answer: The Human binding was 64%.

Question: {Gd^T″}-GK([Gly-Gd^T″])WHCTTLFPHHVCLYG (disulfide 5-14 (inferred), also called Comp ID NO; 966) [Compound ID 966] was tested. Which Rat binding [3] did it give?
Answer: The Rat binding was 8%.

Question: For ERNCVLNDFRWTCGGD (disulfide 4-13 (inferred), also called TN-10 peptide) [SEQ ID NO: 75], which “Dried Human Collagen Binding” value [1] is on record?
Answer: The value was 10%.

Question: Which “Dried Human Collagen Binding” value [1] does the source give for GWSCHSMDMQWHCDFS (disulfide 4-13 (inferred), also called TN-10 peptide) [SEQ ID NO: 67] here?
Answer: Its value is 5%.

Question: What does the source list for YHACYQAGCYIY (disulfide 4-9 (inferred), also called TN-6 peptide) [SEQ ID NO: 108]?
Answer: % Collagen Binding, Dried Human [4]: 5%; % Collagen Binding, Dried Rat [5]: 12%

Question: SWHCFLENHHWMCSDH (disulfide 4-13 (inferred), also called TN-10 peptide) [SEQ ID NO: 68] was tested. Which “Dried Human Collagen Binding” value [1] did it give?
Answer: The value was 5%.

Question: How did the “Dried Human Collagen Binding” value [1] turn out when SWYCNNGSYGQWHCEHR (disulfide 4-14 (inferred), also called TN-11 peptide) [SEQ ID NO: 80] was run?
Answer: The value was 6%.

Question: How did the “Dried Human Collagen Binding” value [1] turn out when WQVCADSPGVITYCYTY (disulfide 4-14 (inferred), also called TN-11 peptide) [SEQ ID NO: 98] was run?
Answer: Its value is 5%.

Question: With GWQCQGTDSLDWKCLYM (disulfide 4-14 (inferred), also called TN-11 peptide) [SEQ ID NO: 77] as the binder, how does the “Dried Human Collagen Binding” value [1] read?
Answer: The value was 12%.

Question: For GWQCFGASDWHCTWV (disulfide 4-12, also called TN-9 peptide) [SEQ ID NO: 8], which “Dried Human Collagen Binding” value [1] is on record?
Answer: The value was 9%.
